Test results: US20140274782A1, “AFFINITY REAGENTS AND METHODS FOR DETECTION, PURIFICATION, AND PROTEOMIC ANALYSIS OF METHYLATED PROTEINS” (The Board of Trustees of the Leland Stanford Junior …, priority 2013, published 2014)

T1: G9a and GLP (Homo sapiens, UniProt Q96KQ7+Q9H9B1)
T1 sequence (Q96KQ7 2-1210 limits assumed): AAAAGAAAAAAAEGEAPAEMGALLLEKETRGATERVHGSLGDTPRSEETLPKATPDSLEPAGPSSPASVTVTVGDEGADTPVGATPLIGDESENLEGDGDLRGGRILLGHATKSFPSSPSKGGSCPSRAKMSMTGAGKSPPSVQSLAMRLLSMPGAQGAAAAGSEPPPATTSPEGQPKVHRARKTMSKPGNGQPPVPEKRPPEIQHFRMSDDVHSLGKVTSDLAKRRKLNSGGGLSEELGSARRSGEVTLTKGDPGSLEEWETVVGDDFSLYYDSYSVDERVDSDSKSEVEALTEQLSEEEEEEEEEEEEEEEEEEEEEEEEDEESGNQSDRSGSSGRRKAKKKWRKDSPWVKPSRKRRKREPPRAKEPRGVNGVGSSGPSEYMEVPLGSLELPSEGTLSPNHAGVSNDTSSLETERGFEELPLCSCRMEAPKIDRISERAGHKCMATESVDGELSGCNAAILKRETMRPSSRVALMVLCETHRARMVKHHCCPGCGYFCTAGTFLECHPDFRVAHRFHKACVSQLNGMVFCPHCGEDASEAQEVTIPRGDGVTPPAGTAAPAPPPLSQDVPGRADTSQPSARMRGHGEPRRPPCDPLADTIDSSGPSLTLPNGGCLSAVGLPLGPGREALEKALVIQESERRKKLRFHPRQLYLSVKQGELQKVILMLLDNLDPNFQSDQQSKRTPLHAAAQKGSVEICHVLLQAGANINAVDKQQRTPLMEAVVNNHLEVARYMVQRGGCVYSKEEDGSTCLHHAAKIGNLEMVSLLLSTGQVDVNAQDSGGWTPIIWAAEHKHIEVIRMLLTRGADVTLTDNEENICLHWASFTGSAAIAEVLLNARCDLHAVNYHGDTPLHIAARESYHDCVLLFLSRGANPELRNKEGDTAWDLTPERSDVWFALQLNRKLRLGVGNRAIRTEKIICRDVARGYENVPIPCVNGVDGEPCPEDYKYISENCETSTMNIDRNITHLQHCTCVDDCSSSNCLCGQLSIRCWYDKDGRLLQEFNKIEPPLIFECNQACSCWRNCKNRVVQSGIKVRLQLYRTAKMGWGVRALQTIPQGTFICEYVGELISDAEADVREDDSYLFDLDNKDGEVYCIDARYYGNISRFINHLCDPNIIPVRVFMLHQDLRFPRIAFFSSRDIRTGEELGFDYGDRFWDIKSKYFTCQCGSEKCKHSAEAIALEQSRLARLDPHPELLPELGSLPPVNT
T1 sequence (Q9H9B1 2-1298 limits assumed): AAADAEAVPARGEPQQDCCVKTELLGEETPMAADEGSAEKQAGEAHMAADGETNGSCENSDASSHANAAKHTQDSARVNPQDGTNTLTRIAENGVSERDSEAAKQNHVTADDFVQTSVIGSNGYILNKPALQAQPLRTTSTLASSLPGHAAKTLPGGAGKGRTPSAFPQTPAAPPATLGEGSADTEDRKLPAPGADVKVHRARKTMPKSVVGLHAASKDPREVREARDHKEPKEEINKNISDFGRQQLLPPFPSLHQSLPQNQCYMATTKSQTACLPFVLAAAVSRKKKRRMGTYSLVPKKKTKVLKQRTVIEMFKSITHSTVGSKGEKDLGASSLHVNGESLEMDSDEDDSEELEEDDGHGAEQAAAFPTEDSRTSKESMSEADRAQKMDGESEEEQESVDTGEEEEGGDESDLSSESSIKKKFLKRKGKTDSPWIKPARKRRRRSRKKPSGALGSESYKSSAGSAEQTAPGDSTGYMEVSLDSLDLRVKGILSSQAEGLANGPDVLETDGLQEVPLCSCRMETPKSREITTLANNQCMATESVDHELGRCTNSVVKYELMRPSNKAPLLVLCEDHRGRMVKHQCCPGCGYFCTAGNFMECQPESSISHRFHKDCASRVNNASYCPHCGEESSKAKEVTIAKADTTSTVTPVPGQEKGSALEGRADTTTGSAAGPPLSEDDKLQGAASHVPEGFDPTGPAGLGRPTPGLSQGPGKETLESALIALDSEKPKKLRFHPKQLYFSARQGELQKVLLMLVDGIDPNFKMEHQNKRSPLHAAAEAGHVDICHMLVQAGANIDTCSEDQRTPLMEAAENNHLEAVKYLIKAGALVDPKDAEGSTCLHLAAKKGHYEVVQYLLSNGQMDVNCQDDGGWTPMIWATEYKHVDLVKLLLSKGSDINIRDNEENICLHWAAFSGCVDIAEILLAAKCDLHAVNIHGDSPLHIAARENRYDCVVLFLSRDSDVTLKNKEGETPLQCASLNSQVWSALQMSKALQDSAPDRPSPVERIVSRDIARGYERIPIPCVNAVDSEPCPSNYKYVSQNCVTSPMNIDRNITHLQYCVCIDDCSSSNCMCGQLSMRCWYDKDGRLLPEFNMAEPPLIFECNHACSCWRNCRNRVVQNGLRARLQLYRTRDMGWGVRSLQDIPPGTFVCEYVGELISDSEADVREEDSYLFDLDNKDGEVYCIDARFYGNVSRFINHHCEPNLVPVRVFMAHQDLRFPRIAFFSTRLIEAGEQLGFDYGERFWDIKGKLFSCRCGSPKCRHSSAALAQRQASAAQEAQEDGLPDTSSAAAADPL


Key:
3×MBT domain of L3MBTL1 = test: Triple SILAC pull-down, 3xMBT/3xMBTD355N ratio (cytoplasmic, nuclear and chromatin fractions of 293T cells); format: binding, human; conditions: SILAC ratio, pull-down 3xMBT vs 3xMBTD355N; for 3xMBT/D355N UNC Heavy: experiment with UNC0638 in heavy SILAC media; for 3xMBT/D355N UNC Light: experiment with UNC0638 in light SILAC media;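 for all read-outs here: proteins quantified with MaxQuant, requiring at least two unique peptides and quantification in both label directions, normalized to the mean of proteins from a digested loading control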
G9a and GLP = molecular target: T1, G9a and GLP; test: Triple SILAC pull-down after UNC0638 treatment of 293T cells, DMSO/UNC0638 ratio of protein captured by 3×MBT; format: cell-based; parameters: endogenous in cells; host or cells: HEK 293T; conditions: for Relative to UNC0638 UNC Heavy / Relative to UNC0638 UNC Light: SILAC ratio DMSO/UNC0638 of protein pulled down with 3xMBT; for Relative to UNC0638 UNC Heavy: UNC0638 in heavy SILAC media; for Relative to UNC0638 UNC Light: UNC0638 in light SILAC media; for Relative to UNC0638 Average: average of UNC Light and UNC Heavy experiments; for Candidate G9a/GLP target: reduced association with 3xMBT after UNC0638 treatment;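 for all read-outs here: mass spectrometry (Q-Exactive) SILAC quantitation, DMSO/UNC0638 ratio computed after subtracting 3×MBTD355N mutant pull-down background, only proteins with at least twofold 3×MBT over mutant signal considered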

Row | Molecule | Relative to UNC0638 UNC Heavy (G9a and GLP) | Relative to UNC0638 UNC Light (G9a and GLP) | Relative to UNC0638 Average (G9a and GLP) | Candidate G9a/GLP target (G9a and GLP) | 3xMBT/D355N UNC Heavy (3×MBT domain of L3MBTL1) | 3xMBT/D355N UNC Light (3×MBT domain of L3MBTL1)
1 | API5 (protein, UniProt Q9BZZ5 2-524, looked up) Apoptosis inhibitor 5: PTVEELYRNYGILADATEQVGQHKDAYQVILDGVKGGTKEKRLAAQFIPKFFKHFPELADSAINAQLDLCEDEDVSIRRQAIKELPQFATGENLPRVADILTQLLQTDDSAEFNLVNNALLSIFKMDAKGTLGGLFSQILQGEDIVRERAIKFLSTKLKTLPDEVLTKEVEELILTESKKVLEDVTGEEFVLFMKILSGLKSLQTVSGRQQLVELVAEQADLEQTFNPSDPDCVDRLLQCTRQAVPLFSKNVHSTRFVTYFCEQVLPNLGTLTTPVEGLDIQLEVLKLLAEMSSFCGDMEKLETNLRKLFDKLLEYMPLPPEEAENGENAGNEEPKLQFSYVECLLYSFHQLGRKLPDFLTAKLNAEKLKDFKIRLQYFARGLQVYIRQLRLALQGKTGEALKTEENKIKVVALKITNNINVLIKDLFHIPPSYKSTVTLSWKPVQKVEIGQKRASEDTTSGSPPKKSSAGPKRDARQIYNPPSGKYSSNLGNFNYEQRGAFRGSRGGRGWGTRGNRSRGRLY | 1.12 log base 2 | 0.31 log base 2 | 0.71 log base 2 | ✓ | 3.54 log base 2 | 2.67 log base 2
2 | HNRNPA0 (protein, UniProt Q13151 1-305, looked up) Heterogeneous nuclear …: MENSQLCKLFIGGLNVQTSESGLRGHFEAFGTLTDCVVVVNPQTKRSRCFGFVTYSNVEEADAAMAASPHAVDGNTVELKRAVSREDSARPGAHAKVKKLFVGGLKGDVAEGDLIEHFSQFGTVEKAEIIADKQSGKKRGFGFVYFQNHDAADKAAVVKFHPIQGHRVEVKKAVPKEDIYSGGGGGGSRSSRGGRGGRGRGGGRDQNGLSKGGGGGYNSYGGYGGGGGGGYNAYGGGGGGSSYGGSDYGNGFGGFGSYSQHQSSYGPMKSGGGGGGGGSSWGGRSNSGPYRGGYGGGGGYGGSSF | 0.02 log base 2 | 0.28 log base 2 | 0.15 log base 2 |  | 2.94 log base 2 | 3.80 log base 2
3 | HN1L (protein, UniProt Q9H910 1-190, looked up) Jupiter microtubule …: MFQVPDSEGGRAGSRAMKPPGGESSNLFGSPEEATPSSRPNRMASNIFGPTEEPQNIPKRTNPPGGKGSGIFDESTPVQTRQHLNPPGGKTSDIFGSPVTATSRLAHPNKPKDHVFLCEGEEPKSDLKAARSIPAGAEPGEKGSARKAGPAKEQEPMPTVDSHEPRLGPRPRSHNKVLNPPGGKSSISFY | 0.17 log base 2 | 1.22 log base 2 | 0.70 log base 2 | ✓ | 2.73 log base 2 | 3.57 log base 2

More lines, main results first:

Row | Relative to UNC0638 UNC Heavy (G9a and GLP) | Relative to UNC0638 UNC Light (G9a and GLP) | Relative to UNC0638 Average (G9a and GLP) | Candidate G9a/GLP target (G9a and GLP) | Molecule | 3xMBT/D355N UNC Heavy (3×MBT domain of L3MBTL1) | 3xMBT/D355N UNC Light (3×MBT domain of L3MBTL1)
4 | −0.02 log base 2 | 0.33 log base 2 | 0.15 log base 2 |  | ZNF326 (protein, UniProt Q5BKZ1 1-582, looked up) DBIRD complex subunit ZNF326: MDFEDDYTHSACRNTYQGFNGMDRDYGPGSYGGMDRDYGHGSYGGQRSMDSYLNQSYGMDNHSGGGGGSRFGPYESYDSRSSLGGRDLYRSGYGFNEPEQSRFGGSYGGRFESSYRNSLDSFGGRNQGGSSWEAPYSRSKLRPGFMEDRGRENYSSYSSFSSPHMKPAPVGSRGRGTPAYPESTFGSRNYDAFGGPSTGRGRGRGHMGDFGSIHRPGIVVDYQNKSTNVTVAAARGIKRKMMQPFNKPSGTFIKKPKLAKPMEKISLSKSPTKTDPKNEEEEKRRIEARREKQRRRREKNSEKYGDGYRMAFTCSFCKFRTFEEKDIELHLESSSHQETLDHIQKQTKFDKVVMEFLHECMVNKFKKTSIRKQQTNNQTEVVKIIEKDVMEGVTVDDHMMKVETVHCSACSVYIPALHSSVQQHLKSPDHIKGKQAYKEQIKRESVLTATSILNNPIVKARYERFVKGENPFEIQDHSQDQQIEGDEEDEEKIDEPIEEEEDEDEEEEAEEVGEVEEVEEVEEVREGGIEGEGNIQGVGEGGEVGVVGEVEGVGEVEEVEELEEETAKEEPADFPVEQPEEN | 3.01 log base 2 | 6.59 log base 2
5 | 0.35 log base 2 | −0.04 log base 2 | 0.15 log base 2 |  | KIN (protein, UniProt O60870 1-393, looked up) DNA/RNA-binding protein KIN17: MGKSDFLTPKAIANRIKSKGLQKLRWYCQMCQKQCRDENGFKCHCMSESHQRQLLLASENPQQFMDYFSEEFRNDFLELLRRRFGTKRVHNNIVYNEYISHREHIHMNATQWETLTDFTKWLGREGLCKVDETPKGWYIQYIDRDPETIRRQLELEKKKKQDLDDEEKTAKFIEEQVRRGLEGKEQEVPTFTELSRENDEEKVTFNLSKGACSSSGATSSKSSTLGPSALKTIGSSASVKRKESSQSSTQSKEKKKKKSALDEIMEIEEEKKRTARTDYWLQPEIIVKIITKKLGEKYHKKKAIVKEVIDKYTAVVKMIDSGDKLKLDQTHLETVIPAPGKRILVLNGGYRGNEGTLESINEKTFSATIVIETGPLKGRRVEGIQYEDISKLA | 2.85 log base 2 | 2.11 log base 2
6 | −0.08 log base 2 | 0.38 log base 2 | 0.15 log base 2 |  | SRP19 (protein, UniProt P09132 1-144, looked up) Signal recognition particle …: MACAAARSPADQDRFICIYPAYLNNKKTIAEGRRIPISKAVENPTATEIQDVCSAVGLNVFLEKNKMYSREWNRDVQYRGRVRVQLKQEDGSLCLVQFPSRKSVMLYAAEMIPKLKTRTQKTGGADQSLQQGEGSKKGKGKKKK | 1.88 log base 2 | 2.14 log base 2
